# Starred links: 1 amine or outer side, 2 acyl side, 3 side chain; linkers in the order of their positions; H or OH if unused. Non-standard residues stand in square brackets, D forms with d. Groups on a side chain read outwards from the residue. *: point of attachment. Gal = N6-(4-(galactopyranosyloxy)butanoyl) on the lysine side chain; C18 diacid = O=C(O)CCCCCCCCCCCCCCCCC(=O)*; Dip = N[C@H](C(=O)O)C(c1ccccc1)c1ccccc1; γGlu = O=C(O)[C@H](CCC(=O)[*:2])N[*:1]; Palmitoyl = CCCCCCCCCCCCCCCC(=O)*; β3hF = N[C@H](CC(=O)O)Cc1ccccc1; 4Amb = NCc1ccc(C(=O)O)cc1; Isovaleryl = CC(C)CC(=O)*; NMeA = CN[C@@H](C)C(=O)O; AEEA = NCCOCCOCC(=O)O; Acryloyl = C=CC(=O)*; Ahx = NCCCCCC(=O)O
# T1: human ferroportin (SLC40A1) fused in frame with GFP, stably expressed in HEK293 cells (human, UniProt Q9NP59 1-571)
# T1 sequence (looked up): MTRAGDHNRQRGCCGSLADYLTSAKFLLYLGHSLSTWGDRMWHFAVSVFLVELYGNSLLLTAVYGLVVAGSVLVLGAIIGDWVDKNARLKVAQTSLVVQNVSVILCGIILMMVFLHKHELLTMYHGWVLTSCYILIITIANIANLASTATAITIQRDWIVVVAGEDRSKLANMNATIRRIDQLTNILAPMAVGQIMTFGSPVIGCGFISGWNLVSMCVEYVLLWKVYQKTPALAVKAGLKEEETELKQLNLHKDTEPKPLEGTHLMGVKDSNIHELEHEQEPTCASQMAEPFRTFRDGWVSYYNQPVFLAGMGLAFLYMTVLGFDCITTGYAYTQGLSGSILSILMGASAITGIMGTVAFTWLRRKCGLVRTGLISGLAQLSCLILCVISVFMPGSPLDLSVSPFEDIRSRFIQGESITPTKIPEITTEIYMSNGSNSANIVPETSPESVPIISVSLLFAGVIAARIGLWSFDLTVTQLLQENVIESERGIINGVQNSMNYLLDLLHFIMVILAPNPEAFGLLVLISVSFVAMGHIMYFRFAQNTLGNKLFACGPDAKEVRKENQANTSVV
# B1: Seq. No. 568 (peptide)
# peptide: Isovaleryl-ETH[Dip]PCI[dK]LK([Ahx-Palmitoyl])[dK]C-NH2
# modifications: not fully specified (bridges); cysteine pairing not given here
# B2: Seq. No. 560 (peptide)
# peptide: Isovaleryl-ETH[Dip]PC[dK](Gal)K([AEEA-AEEA-Ahx-C18 diacid])[β3hF][dK]C-NH2
# modifications: not fully specified (bridges); cysteine pairing not given here
# B3: Seq. No. 573 (peptide)
# peptide: Isovaleryl-ETH[Dip]PCA[dK][β3hF]K([Ahx-Palmitoyl])[dK]C-NH2
# modifications: not fully specified (bridges); cysteine pairing not given here
# B4: Seq. No. 577 (peptide)
# peptide: Isovaleryl-ETH[Dip]PCCK([AEEA-AEEA-Ahx-C18 diacid])[β3hF][dK]-NH2
# modifications: not fully specified (bridges); cysteine pairing not given here
# B5: Seq. No. 553 (peptide)
# peptide: Isovaleryl-ETHK(Acryloyl)PCI[dK][β3hF]K([Ahx-Palmitoyl])[dK]C-NH2
# modifications: not fully specified (bridges); cysteine pairing not given here
# B6: Seq. No. 569 (peptide)
# peptide: Isovaleryl-ETH[Dip]LCI[dK][β3hF]K([Ahx-Palmitoyl])[dK]C-NH2
# modifications: not fully specified (bridges); cysteine pairing not given here
# B7: Seq. No. 574 (peptide)
# peptide: Isovaleryl-ETH[Dip]ACI[dK][β3hF]K([Ahx-Palmitoyl])[dK]C-NH2
# modifications: not fully specified (bridges); cysteine pairing not given here
# B8: Seq. No. 561 (peptide)
# peptide: Isovaleryl-ETH[Dip]PCK(Gal)K([AEEA-AEEA-Ahx-C18 diacid])[β3hF][dK]C-NH2
# modifications: not fully specified (bridges); cysteine pairing not given here
# B9: Seq. No. 566 (peptide)
# peptide: Isovaleryl-ETH[Dip]PC[4Amb][β3hF]K([Ahx-Palmitoyl])[dK]C-NH2
# modifications: not fully specified (bridges); cysteine pairing not given here
# B10: Seq. No. 565 (peptide)
# peptide: XEXHXPCIXXXC
# modifications: not fully specified; [Isovaleric Acid]-E-[N-(hydroxyethyl)Gly]-H-[Dpa]-P-C-I-[Lys(1PEG2_1PEG2_Ahx_C18_Diacid)]-[bhPhe]-[(D)Lys]-C-NH2
# B11: Seq. No. 557 (peptide)
# peptide: XXTHXPCIXXXC
# modifications: not fully specified; [Isovaleric Acid]-[Dap]-T-H-[Dpa]-P-C-I-[Lys(1PEG2_1PEG2_Ahx_C18_Diacid)]-[bhPhe]-[(D)Lys]-C-NH2
# B12: Seq. No. 563 (peptide)
# peptide: XETHXPCIXXXC
# modifications: not fully specified; [Isovaleric Acid]-E-T-H-[Dpa]-P-C-I-[(D)Lys]-[bhPhe]-[Lys(1PEG2_1PEG2_IsoGlu_C18_Diacid)]-C-OH
# B13: Seq. No. 564 (peptide)
# peptide: XETXXPCIXXXC
# modifications: not fully specified; [Isovaleric Acid]-E-T-[N-(Imidazolethyl)Gly]-[Dpa]-P-C-I-[Lys(1PEG2_1PEG2_Ahx_C18_Diacid)]-[bhPhe]-[(D)Lys]-C-NH2
# B14: Seq. No. 570 (peptide)
# peptide: Isovaleryl-ETHLPCI[dK][β3hF]K([Ahx-Palmitoyl])[dK]C-NH2
# modifications: not fully specified (bridges); cysteine pairing not given here
# B15: Seq. No. 562 (peptide)
# peptide: {Cyclohexanoic Acid}-ETH[Dip]PCK([AEEA-AEEA-γGlu-C18 diacid])[β3hF][dK]C-NH2
# modifications: not fully specified (bridges); cysteine pairing not given here
# B16: Seq. No. 554 (peptide)
# peptide: Isovaleryl-ETH[Dip]K(Acryloyl)CI[dK][β3hF]K([Ahx-Palmitoyl])[dK]C-NH2
# modifications: not fully specified (bridges); cysteine pairing not given here
# B17: Seq. No. 567 (peptide)
# peptide: Isovaleryl-ETH[Dip][NMeA]CI[dK][β3hF]K([Ahx-Palmitoyl])[dK]C-NH2
# modifications: not fully specified (bridges); cysteine pairing not given here
# B18: Seq. No. 555 (peptide)
# peptide: Isovaleryl-ETH[Dip]PC[dK](Acryloyl)[dK][β3hF]K([Ahx-Palmitoyl])[dK]C-NH2
# modifications: not fully specified (bridges); cysteine pairing not given here
# B19: Seq. No. 572 (peptide)
# peptide: Isovaleryl-ETH[Dip]PCI[dK]AK([Ahx-Palmitoyl])[dK]C-NH2
# modifications: not fully specified (bridges); cysteine pairing not given here
# B20: Seq. No. 556 (peptide)
# peptide: Isovaleryl-ETH[Dip]PCI[dK]K(Acryloyl)K([Ahx-Palmitoyl])[dK]C-NH2
# modifications: not fully specified (bridges); cysteine pairing not given here
# B21: Seq. No. 575 (peptide)
# peptide: Isovaleryl-ETHAPCI[dK][β3hF]K([Ahx-Palmitoyl])[dK]C-NH2
# modifications: not fully specified (bridges); cysteine pairing not given here
# B22: Seq. No. 558 (peptide)
# peptide: Isovaleryl-ETH[Dip]SCIK([AEEA-AEEA-γGlu-C18 diacid])[β3hF][dK]C-NH2
# modifications: not fully specified (bridges); cysteine pairing not given here
# B23: Seq. No. 571 (peptide)
# peptide: Isovaleryl-ETH[Dip]PC[dK][β3hF]K([Ahx-Palmitoyl])[dK]C-NH2
# modifications: not fully specified (bridges); cysteine pairing not given here
# Biological target: T1, human ferroportin (SLC40A1) fused in …
# Experiment: cell-based or functional assay
row,IC50: FPN internalisation [nM],Binder
1,11.8,B1
2,400,B2
3,6.47,B3
4,2,B4
5,385,B5
6,50.2,B6
7,10.2,B7
8,17.9,B8
9,31.8,B9
10,18.7,B10
11,14.2,B11
12,1190,B12
13,687,B13
14,12.7,B14
15,18.4,B15
16,103,B16
17,30.8,B17
18,17.4,B18
19,8.47,B19
20,15.4,B20
21,83,B21
22,39.2,B22
23,31.2,B23
